Laboratory results: publication PMC5379939

Tests used:
GST-ELKS1(771–976) = assay: pull-down; details: scale: GST-ELKS1(771–976) per MBP-bMunc13-2(1–305)
EYFP-ELKS1(771–976) = assay: FRET or BRET

| stoichiometry N (GST-ELKS1(771–976)) | fold of the FRET value of cells coexpressing soluble ECFP and EYFP (EYFP-ELKS1(771–976)) [fold] | normalized FRET value (EYFP-ELKS1(771–976)) | Substance |
| --- | --- | --- | --- |
| 1.69 |  |  | MBP-bMunc13-2(1–305) (domain or fragment) |
|  | 7 | 0.07 | ECFP-bMunc13-2(70–204) (domain or fragment) |
